According to publication PMC11714857, “PRDX5 and PRDX6 translocation and oligomerization in bull sperm: a response to cryopreservation-induced oxidative stress” (Cell Communication and Signaling : CCS, 2025):
Several values for one entry are separate records, joined by “and”; a condition that tells them apart may be missing. Equal entries are not always repeated.

B1: peroxiredoxin 6 (enzyme, bovine (endogenous in bull sperm), UniProt O77834 1-224, looked up)
chain: MPGGLLLGDEAPNFEANTTIGRIRFHDYLGDSWGILFSHPRDFTPVCTTELGRAAKLAPEFAKRNVKMIALSIDSVEDHLAWSKDINAYNGEEPTEKLPFPIIDDKNRDLAIQLGMLDPAEKDEKGMPVTARVVFIFGPDKKLKLSILYPATTGRNFDEILRVIISLQLTAEKRVATPVDWKNGDSVMVLPTIPEEEAKKLFPKGVFTKELPSGKKYLRYTPQP
notes: peroxiredoxin 6 (PRDX6), bovine, endogenous in bull sperm; runs as a single 25 kDa band in standard SDS-PAGE; The oligomers are disulfide-linked, as they appear only in non-reducing SDS-PAGE; also called PRDX6; source: endogenous, bull sperm lysate (native protein extraction; fresh or cryopreserved sperm)
B2: peroxiredoxin 5 (enzyme, Bos taurus (endogenous in bull sperm), UniProt Q9BGI1 58-219, looked up)
chain: MAPIKVGDAIPSVEVFEKEPGNKVNLAELFKGKKGVLFGLPGAFTPGCSKTHLPGFVEQADALKAKGIQVVACLTVNDVFVTEEWARAHKAEGKVRLLADPSGTFGKETDLLLDDSLLFLFGNHRLKRFSMVIEDGIVKSLNVEPDGTGLTCSLAPNILSQL
notes: peroxiredoxin 5 (PRDX5) from Bos taurus, endogenous in bull sperm; runs as a single 17.5 kDa band in standard SDS-PAGE; The oligomers are disulfide-linked, as they appear only in non-reducing SDS-PAGE; also called PRDX5; source: endogenous, bull sperm lysate (native protein extraction; fresh or cryopreserved sperm)

Molecular target: the molecule itself
Experiment: non-reducing SDS-PAGE with Western blot; native protein extracts of fresh or cryopreserved bull sperm, 30 ug protein, Laemmli buffer with 1.275% SDS and without 2-mercaptoethanol, 12% gels; compared with standard reducing SDS-PAGE; oligomer bands stronger after cryopreservation

Protein	stoichiometry N
B1	2 and 6
B2	6
